Laboratory results as given in US12365732 (23ANDME, dated 2025).

T1: hu-CD96 isoform 2 on CHO cells (human, UniProt P40200 22-585)
T1 construct: also called CHO-CD96 (isoform 2); CD96-CHOs
T1 sequence: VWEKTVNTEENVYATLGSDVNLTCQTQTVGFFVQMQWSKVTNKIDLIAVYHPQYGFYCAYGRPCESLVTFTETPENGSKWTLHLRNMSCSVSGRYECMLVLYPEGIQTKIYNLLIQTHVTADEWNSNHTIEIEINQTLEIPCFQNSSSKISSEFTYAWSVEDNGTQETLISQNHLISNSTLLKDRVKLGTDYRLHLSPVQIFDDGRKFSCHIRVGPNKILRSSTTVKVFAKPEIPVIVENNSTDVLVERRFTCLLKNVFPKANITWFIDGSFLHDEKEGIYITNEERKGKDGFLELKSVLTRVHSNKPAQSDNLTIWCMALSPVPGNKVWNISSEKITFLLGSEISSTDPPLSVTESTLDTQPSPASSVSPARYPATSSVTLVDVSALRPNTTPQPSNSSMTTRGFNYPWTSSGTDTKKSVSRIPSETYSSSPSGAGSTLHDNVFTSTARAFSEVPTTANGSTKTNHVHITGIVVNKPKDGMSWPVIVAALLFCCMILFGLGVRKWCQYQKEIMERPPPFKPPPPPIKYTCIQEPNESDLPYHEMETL

B1: mAb1.v7.NGS11 IgG (antibody, V domains shown)
VH: EVQLVQSGAEVKKPGASVKVSCKASGFTFTNNFMHWVRQAPGQGLEWIGFIHANSGITNINEKFKNRVTMTTDTSTSTAYMELRSLRSEDTAVYYCRSDGVYEGYFDYWGQGTLVTVSS
VL: DIQLTQSPSSLSASVGDRVTITCKASQNVGTAIVWYQQKPGKAPKVLIYSASTRYTGVPSRFSGSGSGTDFTLTISSLQPEDFATYYCQQYSSSPLTFGQGTKVEIKG
notes: human IgG1 N297G
B2: h10G1 IgG (humanized 10G1) (antibody, V domains shown)
VH: EIQLVQSGSELKKPGASVKVSCKASGYPFTTYGMSWVRQAPGQGLEWMGWINTDSGVPTYADDFKGRFVFSLDTSVSTAYLQISSLKAEDTAVYFCARNIYYGWGNFDYWGQGTLVTVSS
VL: EIVMTQSPDFQSVTPKEKVTITCRASQDIYRNLHWYQQKPDQTPKLLIKHASDSISGIPSRFSGSGSGTDFTLTINSLEAEDAAAYYCLQGYSMPYTFGGGTKVEIKG
notes: human IgG1 N297G

Assays:
[1] = target: T1, hu-CD96 isoform 2 on CHO cells; test: FACS, CD155-Fc-FLAG 10 nM, Ab 0.8 nM
Description: (§1) CHO cells stably expressing isoform 2 of hu-CD96 (Origene, catalog #RC221005) were incubated with anti-CD96 antibodies for 20 minutes at 4° C. The cells were washed, and then incubated with 10 nM human CD155-Fc-FLAG for 30 minutes at 4° C. Cells were washed, and then human CD155-Fc-FLAG binding was detected by incubation with anti-FLAG-APC (Columbia Biosciences, catalog #D3-1718-1MG) for 20 minutes at 4° C. Cell binding was analyzed by flow cytometry with a CytoFLEX (Beckman Coulter). CD155 binding is represented as median fluorescence intensity (MedFI).
(§2) As shown in Table 20 (below), the anti-CD96 antibodies, mAb1.v7.NGS8, mAb1.v7.NGS9, mAb1.v7.NGS10, mAb1.v7.NGS11, and h10G1 inhibited soluble hu-CD155 binding to CD96-expressing CHO cells dose-dependently and potently. The antibody NK92.39 (Fuchs et al., 2004; Biolegend catalog #338405) inhibited receptor binding similarly.

[2] = target: T1, hu-CD96 isoform 2 on CHO cells; test: FACS, CD155-Fc-FLAG 10 nM, Ab 4 nM
Description: as §1, §2

Binder | CD155-Fc binding (MedFI) [1] [MedFI] | CD155-Fc binding (MedFI) [2] [MedFI]
B1 | 23600 | 4860
B2 | 5870 | 4860
